Molecular target: adenosine A2A receptor (human (endogenous in postmortem ventral …, UniProt P29274 1-412))
Test: proximity ligation

Chain of adenosine A2A receptor (human (P29274 whole entry): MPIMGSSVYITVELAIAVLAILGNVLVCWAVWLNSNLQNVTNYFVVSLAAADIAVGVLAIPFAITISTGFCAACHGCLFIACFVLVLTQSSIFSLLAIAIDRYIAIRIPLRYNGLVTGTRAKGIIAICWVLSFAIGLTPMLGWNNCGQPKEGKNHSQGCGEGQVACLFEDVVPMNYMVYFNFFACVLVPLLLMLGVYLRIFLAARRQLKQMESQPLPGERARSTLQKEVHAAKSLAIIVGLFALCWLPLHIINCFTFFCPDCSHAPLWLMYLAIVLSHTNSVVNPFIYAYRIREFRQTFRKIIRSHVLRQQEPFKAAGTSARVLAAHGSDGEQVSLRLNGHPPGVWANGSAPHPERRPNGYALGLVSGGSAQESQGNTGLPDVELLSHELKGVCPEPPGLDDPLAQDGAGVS

B1: dopamine receptor type 2 (receptor, UniProt P14416 1-443, looked up)
chain: MDPLNLSWYDDDLERQNWSRPFNGSDGKADRPHYNYYATLLTLLIAVIVFGNVLVCMAVSREKALQTTTNYLIVSLAVADLLVATLVMPWVVYLEVVGEWKFSRIHCDIFVTLDVMMCTASILNLCAISIDRYTAVAMPMLYNTRYSSKRRVTVMISIVWVLSFTISCPLLFGLNNADQNECIIANPAFVVYSSIVSFYVPFIVTLLVYIKIYIVLRRRRKRVNTKRSSRAFRAHLRAPLKGNCTHPEDMKLCTVIMKSNGSFPVNRRRVEAARRAQELEMEMLSSTSPPERTRYSPIPPSHHQLTLPDPSHHGLHSTPDSPAKPEKNGHAKDHPKIAKIFEIQTMPNGKTRTSLKTMSRRKLSQQKEKKATQMLAIVLGVFIICWLPFFITHILNIHCDCNIPPVLYSAFTWLGYVNSAVNPIIYTTFNIEFRKAFLKILHC
- fraction of D2R-A2AR complex relative to total A2AR (PLA puncta): 12.3 ± 1.8%
- fraction of D2R-A2AR complex relative to total D2R (PLA puncta): 13.4 ± 5.3%
